Test in all cases: Lineweaver-Burk plot of the Michaelis-Menten equation
Substrate in series [1]: N=C(N)NCCC[C@H](N)C(=O)O
The series is classed as biochemical, Thermococcus litoralis. To be noted: 70 °C, pH 10.0, free enzyme. The source says: Lineweaver-Burk plot of the Michaelis-Menten equation on arginase Tli08105

Substrate in series [2]: NC(=O)C[C@H](N)C(=O)O
The series is classed as biochemical, Thermococcus litoralis. The following applies: 90 °C, pH 9.0, free enzyme. The source says: Lineweaver-Burk plot of the Michaelis-Menten equation on asparaginase Tli10209

Substrate in series [3]: NC(=O)C[C@H](N)C(=O)O
The series is classed as biochemical, Thermus thermophilus. The following applies: 80 °C, pH 9.0, free enzyme. From the text: Lineweaver-Burk plot of the Michaelis-Menten equation on asparaginase Ttha0067

B1: arginase Tli08105 (Thermococcus litoralis DSM 5473) (protein)
chain: MLFGIPSSKKPNLYILGIPWDNSSSFRRGCAEGPRAIREATSEELYNSFNEELVNLTEHWSYKDLGDIKADTFEELVEKVNAIVRKHYNGELFLFLGGDHSITYATFKAIKEASNEDFGLIYFDAHPDMYPEYDGDEYSHACTVRRLIEEGWVKGENVVQIGVRAPTREQVEFAKEHGVKIISASGIYRSPVIQVPFEKAYLSFDMDVLDPAFAPGVGNPEPGGLSTRELVEVIKSLNVEIIAFDIVELNPKYDYKGISAFAAAKIIREVLGKAAKTK
notes: recombinant, purified by Ni2+-NTA; free enzyme; expression details in supplement
On to B1, for which, in series [1], the Michaelis constant (Km) worked out at 1.059 mM, the Vmax is 961 µM/min, the catalytic constant (kcat) was found to be 1.25 s⁻¹ and the kcat/Km was 1350 M⁻¹ s⁻¹.

B2: asparaginase Tli10209 (Thermococcus litoralis DSM 5473) (protein)
chain: MSEKRKLERRGAEDMKRILIIGTGGTIASAKTDAGFKSVLTIDEILEKADIKLKNGYEIDTRNILNIDSTLIQPEDWERIAKEVYKALEDYDGIVITHGTDTLAYTASMLTFMIRGINKPVVLTGSMRPVTEEESDAPRNLKAAIRFAMEDVSGIFVAFMDKIMLGCRTSKIRALGLNAFMSINYPDVAYVKGEEVIYNLPQKRFKPKGEPVLDTKYEPRVVFIRLTPGLDGNAIDALVKAGYRGIVLEGYGAGGIPYRKRDILSKIREITPQIPVVMTTQALYDGVDLTKYEVGRKALEAGIIPAKDMTKETTITKLMWALGHTKNVEEVKEIMHTNYADEIEG
notes: as for B1
For the protein B2, in series [2], the Michaelis constant (Km) is reported as 4.340 mM, the kcat came to 2080 s⁻¹ and the catalytic efficiency (kcat/Km) was 479000 M⁻¹ s⁻¹.

B3: asparaginase Ttha0067 (Thermus thermophilus HB8) (protein)
chain: MSAEVLVYRGSLVENRHRVSLALWGPEGLVAYAGDPGRVAYLRSSAKPFQALALYLTGAVERFGLTEEEVALATASHDGTPRHVEVAARFLGKLGLGPEHLVCGVHPPFSREARAALEAQGLAPTPLHHNCSGKHAGMLAAALALGAPAEGYHLPDHPVQRLNLATLEALSGARPGLATDGCSVPTFALSLARAARAFFLLADPGRAPEAYRTPLLRVREAMRRHPDLVAGPGSVDTLLMERLPVVAKRGADGYYGLALLEGPRGPLGVALKVEDGATLAREVAVVALLRALGLDPGKTPWDRPPVRNHRGLEVGHLEARLGLVWV
notes: as for B1
With B3, in series [3], the Km came out at 6.178 mM, the kcat turned out to be 1210 s⁻¹ and the kcat/Km was 196000 M⁻¹ s⁻¹.

These data come from article PMC10848425, “Selective enhanced cytotoxicity of amino acid deprivation for cancer therapy using thermozyme functionalized nanocatalyst” (Journal of Nanobiotechnology, 2024).
